Reference: patent US20240207382A1 (HEALTH RESEARCH, published 2024)

Molecular target: T1, mouse Factor H (FH from mouse, MyBiosource) (mouse, UniProt P06909 19-1234)
T1 construct: Bought protein, coated on microtiter wells; also called mouse FH
Test: quantitative ELISA, mouse FH coated, GST-tagged protein (0.03125-2 µM) detected with anti-GST

T1 sequence (P06909 19-1234): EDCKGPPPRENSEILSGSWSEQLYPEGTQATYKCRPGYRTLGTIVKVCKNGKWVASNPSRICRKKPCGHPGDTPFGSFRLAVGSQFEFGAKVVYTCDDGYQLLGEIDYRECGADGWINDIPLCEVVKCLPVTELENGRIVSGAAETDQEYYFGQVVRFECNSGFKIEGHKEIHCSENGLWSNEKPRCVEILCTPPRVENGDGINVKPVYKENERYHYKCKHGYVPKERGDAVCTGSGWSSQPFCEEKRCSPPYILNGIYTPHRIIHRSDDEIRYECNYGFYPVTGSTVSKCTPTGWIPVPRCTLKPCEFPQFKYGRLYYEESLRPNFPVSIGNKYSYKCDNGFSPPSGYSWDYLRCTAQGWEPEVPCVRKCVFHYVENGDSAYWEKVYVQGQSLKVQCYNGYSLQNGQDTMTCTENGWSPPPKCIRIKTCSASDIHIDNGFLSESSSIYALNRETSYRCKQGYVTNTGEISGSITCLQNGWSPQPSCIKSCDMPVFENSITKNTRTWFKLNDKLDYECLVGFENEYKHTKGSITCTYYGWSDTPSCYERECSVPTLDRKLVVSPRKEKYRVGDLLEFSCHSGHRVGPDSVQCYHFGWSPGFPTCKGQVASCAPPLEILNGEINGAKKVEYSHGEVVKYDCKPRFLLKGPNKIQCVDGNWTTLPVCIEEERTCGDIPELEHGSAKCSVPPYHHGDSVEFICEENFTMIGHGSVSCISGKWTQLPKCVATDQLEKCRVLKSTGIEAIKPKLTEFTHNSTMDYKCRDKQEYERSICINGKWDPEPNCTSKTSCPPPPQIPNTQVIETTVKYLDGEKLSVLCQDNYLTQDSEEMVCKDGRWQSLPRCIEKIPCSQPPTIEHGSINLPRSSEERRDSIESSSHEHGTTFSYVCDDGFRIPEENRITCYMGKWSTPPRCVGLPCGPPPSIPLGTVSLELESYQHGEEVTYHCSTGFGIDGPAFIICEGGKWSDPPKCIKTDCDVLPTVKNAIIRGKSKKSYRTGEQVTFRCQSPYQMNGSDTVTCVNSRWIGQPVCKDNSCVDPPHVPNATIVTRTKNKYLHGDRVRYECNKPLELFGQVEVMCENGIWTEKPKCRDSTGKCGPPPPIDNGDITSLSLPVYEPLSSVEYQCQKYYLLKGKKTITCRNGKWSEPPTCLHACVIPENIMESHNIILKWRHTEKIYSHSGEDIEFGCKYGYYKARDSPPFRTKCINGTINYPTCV

B1: GST tagged CspZ (residue 20 to 236 of CspZ from B. burgdorferi strain B31) (other)
chain: DVSRLNQRNINELKIFVEKAKYYSIKLDAIYNECTGAYNDIMTYSEGTFSDQSKVNQAISIFKKDNKIVNKFKELEKIIEEYKPMFLSKLIDDFAIELDQAVDNDVSNARHVADSYKKLRKSVVLAYIESFDVISSKFVDSKFVEASKKFVNKAKEFVEENDLIALECIVKTIGDMVNDREINSRSRYNNFYKKEADFLGAAVELEGAYKAIKQTLL
notes: also called wild type CspZ; CRASP-2; not shown: glutathione-S-transferase (GST) tag encoded by plasmid pGEX-6P1
  binding result: binds
